Earlier results in article PMC4569521 (Journal of molecular biology, 2015).

Target: ClpXP (Escherichia coli, UniProt P0A6G7+P0A6H1)
Conditions: MuA monomers; ref [23]

Chain of ClpXP (P0A6H1 whole entry): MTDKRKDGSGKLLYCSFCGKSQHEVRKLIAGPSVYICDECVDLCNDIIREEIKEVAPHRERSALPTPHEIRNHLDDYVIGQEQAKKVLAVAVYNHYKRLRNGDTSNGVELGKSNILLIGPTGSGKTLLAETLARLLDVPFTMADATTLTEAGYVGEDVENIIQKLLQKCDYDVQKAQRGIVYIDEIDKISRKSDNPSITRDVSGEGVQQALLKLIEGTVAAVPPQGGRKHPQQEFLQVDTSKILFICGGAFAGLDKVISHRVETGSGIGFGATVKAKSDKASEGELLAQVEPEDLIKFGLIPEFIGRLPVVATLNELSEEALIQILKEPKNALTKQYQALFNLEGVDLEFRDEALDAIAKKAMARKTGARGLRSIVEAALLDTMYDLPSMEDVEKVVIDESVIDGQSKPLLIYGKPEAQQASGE
Chain of ClpXP (P0A6G7 15-207 partner): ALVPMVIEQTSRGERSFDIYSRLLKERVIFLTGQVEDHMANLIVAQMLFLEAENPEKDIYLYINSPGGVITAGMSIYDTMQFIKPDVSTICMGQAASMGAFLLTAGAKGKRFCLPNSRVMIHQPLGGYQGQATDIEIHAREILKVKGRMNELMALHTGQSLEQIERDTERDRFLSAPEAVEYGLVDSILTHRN

Substance: MuA monomers: Phage Mu transposase, ~75kDa, three domains; monomer in solution
- appKM for degradation by ClpXP: ~ 10 μM
